Assay results: patent US20120322150A1 (CARNEGIE INSTITUTION OF WASHINGTON, published 2012)

T1: BSL1 fused C-terminal half (cYFP) of yellow fluorescence protein (Arabidopsis, UniProt Q8L7U5 1-881)
T1 construct: BiFC construct; also called BSL1-cYFP; not shown: C-terminal half of YFP (cYFP)
T1 sequence: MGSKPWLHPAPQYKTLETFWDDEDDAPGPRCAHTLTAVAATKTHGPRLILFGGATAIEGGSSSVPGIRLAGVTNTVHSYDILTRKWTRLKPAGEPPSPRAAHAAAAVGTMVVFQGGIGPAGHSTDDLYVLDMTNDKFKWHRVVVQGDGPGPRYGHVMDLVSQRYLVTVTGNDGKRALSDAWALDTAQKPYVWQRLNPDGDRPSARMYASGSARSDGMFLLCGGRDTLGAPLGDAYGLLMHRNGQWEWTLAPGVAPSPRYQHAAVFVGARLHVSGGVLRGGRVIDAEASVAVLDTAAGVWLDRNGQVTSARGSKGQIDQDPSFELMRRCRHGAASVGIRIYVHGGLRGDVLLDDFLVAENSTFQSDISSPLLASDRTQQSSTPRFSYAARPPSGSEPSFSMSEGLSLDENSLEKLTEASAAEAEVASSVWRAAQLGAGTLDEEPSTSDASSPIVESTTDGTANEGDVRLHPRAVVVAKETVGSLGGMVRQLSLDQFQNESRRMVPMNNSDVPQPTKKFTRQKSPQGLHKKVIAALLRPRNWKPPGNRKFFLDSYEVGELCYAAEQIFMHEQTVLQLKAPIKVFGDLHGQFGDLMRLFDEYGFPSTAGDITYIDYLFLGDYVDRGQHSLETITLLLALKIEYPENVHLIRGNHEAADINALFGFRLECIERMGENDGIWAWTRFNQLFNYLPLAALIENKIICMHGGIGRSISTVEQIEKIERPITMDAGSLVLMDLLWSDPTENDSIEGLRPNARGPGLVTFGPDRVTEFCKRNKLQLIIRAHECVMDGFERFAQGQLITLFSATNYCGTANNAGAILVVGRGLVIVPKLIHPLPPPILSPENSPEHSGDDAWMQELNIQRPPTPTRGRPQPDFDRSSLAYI


Tests used:
MBP-BSU1 [1] = biological target: T2, MBP-BSU1 (Arabidopsis, UniProt Q9LR78 1-793); test: overlay blot: GST fusions on membrane probed with MBP-BSU1 and anti-MBP antibody
T2 construct: Recombinant fusion used as probe in overlay (far-western) blots and in phosphatase assays; also called BSU1 from E. coli
Method: To test interaction of BSU1 with BIN2 or bin2-1 in vitro, a gel blot separating GST, GST-BIN2, GSTbin2-1 was incubated with 20 μg MBP-BSU1 in 5% non-fat dry milk/PBS buffer and washed four times. The blot was then probed with a polyclonal anti-MBP antibody. In the case of BSU1 overlay to BSK1, GST-BRI1-K, GST-BAK1-K and GST-BSK1 were separated by SDS-PAGE. To prepare phosphorylated BSK1, GST-BSK1 was incubated with GST-BRI1-K and 100 μM ATP in the kinase buffer for 2 hrs before SDS-PAGE. The blot was sequentially probed with MBP-BSU1 and a monoclonal anti-MBP antibody (New England Biolab, Beverly, Mass.).

[2] = biological target: T1, BSL1 fused C-terminal half (cYFP) of …; test: BiFC in tobacco cells
Description: (§1) GST, GST-BIN2 and GST-bin2-1 were separated by SDS-PAGE and blotted onto nitrocellulose membrane. The blot was probed sequentially with MBP-BSU1 and anti-MBP antibody (upper) and then stained with Ponceau S (lower). […] The protein extracts of the tobacco leaves transiently transformed with the indicated constructs were immunoprecipitated with anti-GFP antibody, and the immunoblot was probed with anti-myc and anti-GFP antibody. […] The indicated constructs were transformed into tobacco leaf epidermal cells. Bright spots in BIN2-nYFP+cYFP are chloroplast auto-fluorescence. […] Arabidopsis plants (F1) expressing BSU1-YFP or co-expressing BSU1-YFP and BIN2-myc were grown on the medium containing BR biosynthetic inhibitor, brassinazole (BRZ), for 10 days. The plants were treated with 10 μM MG-132 for 1 hr and then with 0.2 μM BL or mock solution for 15 min. Total protein extracts were immunoprecipitated with anti-myc antibodies, and the immunoblot was probed with anti-GFP and anti-myc antibodies.
(§2) Transformation by Agrobacterium infiltration, observations of subcellular localization and BiFC signal in tobacco or Arabidopsis were performed as described previously 5. Fluorescence of YFP was visualized by using a spinning-disk confocal microscope (Leica Microsystems, Heerbruag, Germany).

[3] = biological target: T3, BSU1 fused to C-terminal half (cYFP) of YFP (Arabidopsis, UniProt Q9LR78 1-793); test: BiFC in tobacco cells
T3 construct: BiFC construct in tobacco leaf epidermal cells, with BIN2-nYFP or bin2-1-nYFP; also called BSU1-cYFP; not shown: C-terminal half of YFP (cYFP)
Description: as §1, §2

MBP-BSU1 [4] = biological target: T2, MBP-BSU1; test: in vitro overlay blot, MBP-BSU1 probe, anti-MBP detection
Method: Total protein extracts obtained from Arabidopsis plants (F1) expressing BSU1 -YFP or co-expressing BSU1-YFP and BSK1-myc were immunoprecipitated with anti-myc, and the immunoblot was probed with anti-GFP and anti-myc antibody. […] GST-BSK1 or GST-BSK1 S230A was incubated with GST-BRI1-K or GST for 2 hrs. […] In the presence of BR (+BR), BR binding to the extracellular domain of BRI1 induces dissociation of BKI1 and association and inter-activation between BRI1 and BAKI. Activated BRI1 then phosphorylates BSK1, which in turn dissociates from the receptor complex and interacts with and presumably activate BSU1. BSU1 inactivates BIN2 by dephosphorylating its pTyr200, allowing accumulation of unphosphorylated BZR1/2, likely with help of a phosphatase that is yet to be identified. Unphosphorylated BZR1/2 accumulate in the nucleus and alter the expression of BR-target genes, leading to cellular and developmental responses. While individual representative protein is shown for each function, in Arabidopsis most of these components have about 2 to 5 homologous proteins (paralogs) that can contribute to the same or similar signaling function.
To test interaction of BSU1 with BIN2 or bin2-1 in vitro, a gel blot separating GST, GST-BIN2, GSTbin2-1 was incubated with 20 μg MBP-BSU1 in 5% non-fat dry milk/PBS buffer and washed four times. The blot was then probed with a polyclonal anti-MBP antibody. […]

T2 sequence (Q9LR78 whole entry, the tested form may be a part): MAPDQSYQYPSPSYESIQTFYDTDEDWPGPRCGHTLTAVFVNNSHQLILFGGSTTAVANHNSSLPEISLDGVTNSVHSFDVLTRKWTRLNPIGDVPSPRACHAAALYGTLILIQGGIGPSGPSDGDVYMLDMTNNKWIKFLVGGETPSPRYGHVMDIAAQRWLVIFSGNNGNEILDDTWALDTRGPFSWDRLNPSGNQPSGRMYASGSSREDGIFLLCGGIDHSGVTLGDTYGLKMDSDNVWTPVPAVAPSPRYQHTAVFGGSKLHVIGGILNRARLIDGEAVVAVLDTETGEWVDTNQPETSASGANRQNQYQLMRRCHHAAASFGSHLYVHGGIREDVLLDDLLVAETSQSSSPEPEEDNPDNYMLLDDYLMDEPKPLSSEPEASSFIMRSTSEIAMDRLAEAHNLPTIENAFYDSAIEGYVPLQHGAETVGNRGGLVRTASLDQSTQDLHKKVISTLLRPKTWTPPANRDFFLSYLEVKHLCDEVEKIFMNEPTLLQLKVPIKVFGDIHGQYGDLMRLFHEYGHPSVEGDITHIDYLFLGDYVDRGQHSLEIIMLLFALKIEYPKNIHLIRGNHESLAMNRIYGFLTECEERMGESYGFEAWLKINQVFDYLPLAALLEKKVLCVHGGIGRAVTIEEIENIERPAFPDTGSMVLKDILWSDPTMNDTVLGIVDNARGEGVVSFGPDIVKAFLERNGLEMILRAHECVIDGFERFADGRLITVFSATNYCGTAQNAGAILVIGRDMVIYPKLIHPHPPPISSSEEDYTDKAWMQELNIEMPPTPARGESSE
T3 sequence (Q9LR78 whole entry, the tested form may be a part): as above

Row | binding result (MBP-BSU1 [1]) | binding result (MBP-BSU1 [4]) | Binder | other results
1 | binds |  | GST-BIN2 (enzyme, Arabidopsis, UniProt Q39011 1-380, looked up, phospho-tyrosine 200 (autophosphorylation site of BIN2, detected on GST-BIN2 from E. coli), Expressed and purified from E. coli; also called wild type GST-BIN2; not shown: GST (glutathione S-transferase) tag) MADDKEMPAAVVDGHDQVTGHIISTTIGGKNGEPKQTISYMAERVVGTGSFGIVFQAKCLETGETVAIKKVLQDRRYKNRELQLMRVMDHPNVVCLKHCFFSTTSKDELFLNLVMEYVPESLYRVLKHYSSANQRMPLVYVKLYMYQIFRGLAYIHNVAGVCHRDLKPQNLLVDPLTHQVKICDFGSAKQLVKGEANISYICSRFYRAPELIFGATEYTTSIDIWSAGCVLAELLLGQPLFPGENAVDQLVEIIKVLGTPTREEIRCMNPHYTDFRFPQIKAHPWHKIFHKRMPPEAIDFASRLLQYSPSLRCTALEACAHPFFDELREPNARLPNGRPFPPLFNFKQEVAGSSPELVNKLIPDHIKRQLGLSFLNQSGT | 
2 |  |  | BIN2 fused to the N-terminal half (nYFP) of YFP (enzyme, Arabidopsis, UniProt Q39011 1-380, looked up, BiFC construct in tobacco cells; also called BIN2-nYFP; not shown: N-terminal half of YFP (nYFP)) MADDKEMPAAVVDGHDQVTGHIISTTIGGKNGEPKQTISYMAERVVGTGSFGIVFQAKCLETGETVAIKKVLQDRRYKNRELQLMRVMDHPNVVCLKHCFFSTTSKDELFLNLVMEYVPESLYRVLKHYSSANQRMPLVYVKLYMYQIFRGLAYIHNVAGVCHRDLKPQNLLVDPLTHQVKICDFGSAKQLVKGEANISYICSRFYRAPELIFGATEYTTSIDIWSAGCVLAELLLGQPLFPGENAVDQLVEIIKVLGTPTREEIRCMNPHYTDFRFPQIKAHPWHKIFHKRMPPEAIDFASRLLQYSPSLRCTALEACAHPFFDELREPNARLPNGRPFPPLFNFKQEVAGSSPELVNKLIPDHIKRQLGLSFLNQSGT | binding result [2]: binds; binding result [3]: binds
3 | binds |  | GST-BSK1 (enzyme, Arabidopsis, UniProt Q944A7 1-512, looked up, also called full-length BSK1; not shown: GST (glutathione S-transferase) tag) MGCCQSLFSGDNPLGKDGVQPQPLSQNNHGGATTADNGGSGGASGVGGGGGGGGIPSFSEFSFADLKAATNNFSSDNIVSESGEKAPNLVYKGRLQNRRWIAVKKFTKMAWPEPKQFAEEAWGVGKLRHNRLANLIGYCCDGDERLLVAEFMPNDTLAKHLFHWENQTIEWAMRLRVGYYIAEALDYCSTEGRPLYHDLNAYRVLFDEDGDPRLSCFGLMKNSRDGKSYSTNLAYTPPEYLRNGRVTPESVTYSFGTVLLDLLSGKHIPPSHALDMIRGKNIILLMDSHLEGKFSTEEATVVVELASQCLQYEPRERPNTKDLVATLAPLQTKSDVPSYVMLGIKKQEEAPSTPQRPLSPLGEACSRMDLTAIHQILVMTHYRDDEGTNELSFQEWTQQMKDMLDARKRGDQSFREKDFKTAIDCYSQFIDVGTMVSPTVFGRRSLCYLLCDQPDAALRDAMQAQCVYPDWPTAFYMQSVALAKLNMNTDAADMLNEAAQLEEKRQRGGRGS | 
4 |  | no binding | GST-BRI1-K (receptor, Arabidopsis, UniProt O22476 815-1196, looked up, domain: kinase domain; also called GST BR11-K; kinase domain of BRI1; not shown: GST (glutathione S-transferase) tag) REMRKRRRKKEAELEMYAEGHGNSGDRTANNTNWKLTGVKEALSINLAAFEKPLRKLTFADLLQATNGFHNDSLIGSGGFGDVYKAILKDGSAVAIKKLIHVSGQGDREFMAEMETIGKIKHRNLVPLLGYCKVGDERLLVYEFMKYGSLEDVLHDPKKAGVKLNWSTRRKIAIGSARGLAFLHHNCSPHIIHRDMKSSNVLLDENLEARVSDFGMARLMSAMDTHLSVSTLAGTPGYVPPEYYQSFRCSTKGDVYSYGVVLLELLTGKRPTDSPDFGDNNLVGWVKQHAKLRISDVFDPELMKEDPALEIELLQHLKVAVACLDDRAWRRPTMVQVMAMFKEIQAGSGIDSQSTIRSIEDGGFSTIEMVDMSIKEVPEGKL | 
5 |  | no binding | GST-BAK1-K (receptor, Arabidopsis, UniProt Q94F62 247-615, looked up, domain: kinase domain; also called kinase domain of BAK1; not shown: GST (glutathione S-transferase) tag) AWWRRKKPQDHFFDVPAEEDPEVHLGQLKRFSLRELQVASDNFSNKNILGRGGFGKVYKGRLADGTLVAVKRLKEERTQGGELQFQTEVEMISMAVHRNLLRLRGFCMTPTERLLVYPYMANGSVASCLRERPESQPPLDWPKRQRIALGSARGLAYLHDHCDPKIIHRDVKAANILLDEEFEAVVGDFGLAKLMDYKDTHVTTAVRGTIGHIAPEYLSTGKSSEKTDVFGYGVMLLELITGQRAFDLARLANDDDVMLLDWVKGLLKEKKLEALVDVDLQGNYKDEEVEQLIQVALLCTQSSPMERPKMSEVVRMLEGDGLAERWEEWQKEEMFRQDFNYPTHHPAVSGWIIGDSTSQIENEYPSGPR | 
